B1: CE115HA000 G98P one-arm antibody (antibody, human IgG1, kappa, L234A L235A, N297A, name in Kabat numbering)
heavy: QVQLVESGGGVVQPGRSLRLSCAASGFTFSNAWMHWVRQAPGKGLEWVAQIKAKSNNYATYYAESVKGRFTISRDDSKNSLYLQMNSLKTEDTAVYYCRYVHYPAYYGVDAWGQGTTVTVSSASTKGPSVFPLAPSSKSTSGGTAALGCLVKDYFPEPVTVSWNSGALTSGVHTFPAVLQSSGLYSLSSVVTVPSSSLGTQTYICNVNHKPSNTKVDKKVEPKSCDKTHTCPPCPAPEAAGGPSVFLFPPKPKDTLMISRTPEVTCVVVDVSHEDPEVKFNWYVDGVEVHNAKTKPREEQYASTYRVVSVLTVLHQDWLNGKEYKCKVSNKALPAPIEKTISKAKGQPREPQVYTLPPSRCELTKNQVSLSCAVKGFYPSDIAVEWESNGQPENNYKTTPPVLDSDGSFFLVSKLTVDKSRWQQGNVFSCSVMHEALHNHYTQKSLSLSPDYKDDDDK
chain: EPKSSDKTHTCPPCPAPELLGGPSVFLFPPKPKDTLMISRTPEVTCVVVDVSHEDPEVKFNWYVDGVEVHNAKTKPREEQYNSTYRVVSVLTVLHQDWLNGKEYKCKVSNKALPAPIEKTISKAKGQPREPQVCTLPPSRDELTKNQVSLWCLVKGFYPSDIAVEWESNGQPENNYKTTPPVLDSDGSFFLYSKLTVDKSRWQQGNVFSCSVMHEALHNRYTQKSLSLSP
light: DIVMTQSPLSLPVTPGEPASISCRSSQSLVHSNRNTYLHWYQQKPGQAPRLLIYKVSNRFSGVPDRFSGSGSGTDFTLKISRVEAEDVGVYYCGQGTQVPYTFGQGTKLEIKRTVAAPSVFIFPPSDEQLKSGTASVVCLLNNFYPREAKVQWKVDNALQSGNSQESVTEQDSKDSTYSLSSTLTLSKADYEKHKVYACEVTHQGLSSPVTKSFNRGEC
B2: CE115HA000 G98S one-arm antibody (antibody, human IgG1, kappa, L234A L235A, N297A, name in Kabat numbering)
heavy: QVQLVESGGGVVQPGRSLRLSCAASGFTFSNAWMHWVRQAPGKGLEWVAQIKAKSNNYATYYAESVKGRFTISRDDSKNSLYLQMNSLKTEDTAVYYCRYVHYSAYYGVDAWGQGTTVTVSSASTKGPSVFPLAPSSKSTSGGTAALGCLVKDYFPEPVTVSWNSGALTSGVHTFPAVLQSSGLYSLSSVVTVPSSSLGTQTYICNVNHKPSNTKVDKKVEPKSCDKTHTCPPCPAPEAAGGPSVFLFPPKPKDTLMISRTPEVTCVVVDVSHEDPEVKFNWYVDGVEVHNAKTKPREEQYASTYRVVSVLTVLHQDWLNGKEYKCKVSNKALPAPIEKTISKAKGQPREPQVYTLPPSRCELTKNQVSLSCAVKGFYPSDIAVEWESNGQPENNYKTTPPVLDSDGSFFLVSKLTVDKSRWQQGNVFSCSVMHEALHNHYTQKSLSLSPDYKDDDDK
chain: EPKSSDKTHTCPPCPAPELLGGPSVFLFPPKPKDTLMISRTPEVTCVVVDVSHEDPEVKFNWYVDGVEVHNAKTKPREEQYNSTYRVVSVLTVLHQDWLNGKEYKCKVSNKALPAPIEKTISKAKGQPREPQVCTLPPSRDELTKNQVSLWCLVKGFYPSDIAVEWESNGQPENNYKTTPPVLDSDGSFFLYSKLTVDKSRWQQGNVFSCSVMHEALHNRYTQKSLSLSP
light: DIVMTQSPLSLPVTPGEPASISCRSSQSLVHSNRNTYLHWYQQKPGQAPRLLIYKVSNRFSGVPDRFSGSGSGTDFTLKISRVEAEDVGVYYCGQGTQVPYTFGQGTKLEIKRTVAAPSVFIFPPSDEQLKSGTASVVCLLNNFYPREAKVQWKVDNALQSGNSQESVTEQDSKDSTYSLSSTLTLSKADYEKHKVYACEVTHQGLSSPVTKSFNRGEC
B3: CE115HA000 G98R one-arm antibody (antibody, human IgG1, kappa, L234A L235A, N297A, name in Kabat numbering)
heavy: QVQLVESGGGVVQPGRSLRLSCAASGFTFSNAWMHWVRQAPGKGLEWVAQIKAKSNNYATYYAESVKGRFTISRDDSKNSLYLQMNSLKTEDTAVYYCRYVHYRAYYGVDAWGQGTTVTVSSASTKGPSVFPLAPSSKSTSGGTAALGCLVKDYFPEPVTVSWNSGALTSGVHTFPAVLQSSGLYSLSSVVTVPSSSLGTQTYICNVNHKPSNTKVDKKVEPKSCDKTHTCPPCPAPEAAGGPSVFLFPPKPKDTLMISRTPEVTCVVVDVSHEDPEVKFNWYVDGVEVHNAKTKPREEQYASTYRVVSVLTVLHQDWLNGKEYKCKVSNKALPAPIEKTISKAKGQPREPQVYTLPPSRCELTKNQVSLSCAVKGFYPSDIAVEWESNGQPENNYKTTPPVLDSDGSFFLVSKLTVDKSRWQQGNVFSCSVMHEALHNHYTQKSLSLSPDYKDDDDK
chain: EPKSSDKTHTCPPCPAPELLGGPSVFLFPPKPKDTLMISRTPEVTCVVVDVSHEDPEVKFNWYVDGVEVHNAKTKPREEQYNSTYRVVSVLTVLHQDWLNGKEYKCKVSNKALPAPIEKTISKAKGQPREPQVCTLPPSRDELTKNQVSLWCLVKGFYPSDIAVEWESNGQPENNYKTTPPVLDSDGSFFLYSKLTVDKSRWQQGNVFSCSVMHEALHNRYTQKSLSLSP
light: DIVMTQSPLSLPVTPGEPASISCRSSQSLVHSNRNTYLHWYQQKPGQAPRLLIYKVSNRFSGVPDRFSGSGSGTDFTLKISRVEAEDVGVYYCGQGTQVPYTFGQGTKLEIKRTVAAPSVFIFPPSDEQLKSGTASVVCLLNNFYPREAKVQWKVDNALQSGNSQESVTEQDSKDSTYSLSSTLTLSKADYEKHKVYACEVTHQGLSSPVTKSFNRGEC
B4: CE115HA000 G98Q one-arm antibody (antibody, human IgG1, kappa, L234A L235A, N297A, name in Kabat numbering)
heavy: QVQLVESGGGVVQPGRSLRLSCAASGFTFSNAWMHWVRQAPGKGLEWVAQIKAKSNNYATYYAESVKGRFTISRDDSKNSLYLQMNSLKTEDTAVYYCRYVHYQAYYGVDAWGQGTTVTVSSASTKGPSVFPLAPSSKSTSGGTAALGCLVKDYFPEPVTVSWNSGALTSGVHTFPAVLQSSGLYSLSSVVTVPSSSLGTQTYICNVNHKPSNTKVDKKVEPKSCDKTHTCPPCPAPEAAGGPSVFLFPPKPKDTLMISRTPEVTCVVVDVSHEDPEVKFNWYVDGVEVHNAKTKPREEQYASTYRVVSVLTVLHQDWLNGKEYKCKVSNKALPAPIEKTISKAKGQPREPQVYTLPPSRCELTKNQVSLSCAVKGFYPSDIAVEWESNGQPENNYKTTPPVLDSDGSFFLVSKLTVDKSRWQQGNVFSCSVMHEALHNHYTQKSLSLSPDYKDDDDK
chain: EPKSSDKTHTCPPCPAPELLGGPSVFLFPPKPKDTLMISRTPEVTCVVVDVSHEDPEVKFNWYVDGVEVHNAKTKPREEQYNSTYRVVSVLTVLHQDWLNGKEYKCKVSNKALPAPIEKTISKAKGQPREPQVCTLPPSRDELTKNQVSLWCLVKGFYPSDIAVEWESNGQPENNYKTTPPVLDSDGSFFLYSKLTVDKSRWQQGNVFSCSVMHEALHNRYTQKSLSLSP
light: DIVMTQSPLSLPVTPGEPASISCRSSQSLVHSNRNTYLHWYQQKPGQAPRLLIYKVSNRFSGVPDRFSGSGSGTDFTLKISRVEAEDVGVYYCGQGTQVPYTFGQGTKLEIKRTVAAPSVFIFPPSDEQLKSGTASVVCLLNNFYPREAKVQWKVDNALQSGNSQESVTEQDSKDSTYSLSSTLTLSKADYEKHKVYACEVTHQGLSSPVTKSFNRGEC
B5: CE115HA000 G98T one-arm antibody (antibody, human IgG1, kappa, L234A L235A, N297A, name in Kabat numbering)
heavy: QVQLVESGGGVVQPGRSLRLSCAASGFTFSNAWMHWVRQAPGKGLEWVAQIKAKSNNYATYYAESVKGRFTISRDDSKNSLYLQMNSLKTEDTAVYYCRYVHYTAYYGVDAWGQGTTVTVSSASTKGPSVFPLAPSSKSTSGGTAALGCLVKDYFPEPVTVSWNSGALTSGVHTFPAVLQSSGLYSLSSVVTVPSSSLGTQTYICNVNHKPSNTKVDKKVEPKSCDKTHTCPPCPAPEAAGGPSVFLFPPKPKDTLMISRTPEVTCVVVDVSHEDPEVKFNWYVDGVEVHNAKTKPREEQYASTYRVVSVLTVLHQDWLNGKEYKCKVSNKALPAPIEKTISKAKGQPREPQVYTLPPSRCELTKNQVSLSCAVKGFYPSDIAVEWESNGQPENNYKTTPPVLDSDGSFFLVSKLTVDKSRWQQGNVFSCSVMHEALHNHYTQKSLSLSPDYKDDDDK
chain: EPKSSDKTHTCPPCPAPELLGGPSVFLFPPKPKDTLMISRTPEVTCVVVDVSHEDPEVKFNWYVDGVEVHNAKTKPREEQYNSTYRVVSVLTVLHQDWLNGKEYKCKVSNKALPAPIEKTISKAKGQPREPQVCTLPPSRDELTKNQVSLWCLVKGFYPSDIAVEWESNGQPENNYKTTPPVLDSDGSFFLYSKLTVDKSRWQQGNVFSCSVMHEALHNRYTQKSLSLSP
light: DIVMTQSPLSLPVTPGEPASISCRSSQSLVHSNRNTYLHWYQQKPGQAPRLLIYKVSNRFSGVPDRFSGSGSGTDFTLKISRVEAEDVGVYYCGQGTQVPYTFGQGTKLEIKRTVAAPSVFIFPPSDEQLKSGTASVVCLLNNFYPREAKVQWKVDNALQSGNSQESVTEQDSKDSTYSLSSTLTLSKADYEKHKVYACEVTHQGLSSPVTKSFNRGEC
B6: CE115HA000 G98Y one-arm antibody (antibody, human IgG1, kappa, L234A L235A, N297A, name in Kabat numbering)
heavy: QVQLVESGGGVVQPGRSLRLSCAASGFTFSNAWMHWVRQAPGKGLEWVAQIKAKSNNYATYYAESVKGRFTISRDDSKNSLYLQMNSLKTEDTAVYYCRYVHYYAYYGVDAWGQGTTVTVSSASTKGPSVFPLAPSSKSTSGGTAALGCLVKDYFPEPVTVSWNSGALTSGVHTFPAVLQSSGLYSLSSVVTVPSSSLGTQTYICNVNHKPSNTKVDKKVEPKSCDKTHTCPPCPAPEAAGGPSVFLFPPKPKDTLMISRTPEVTCVVVDVSHEDPEVKFNWYVDGVEVHNAKTKPREEQYASTYRVVSVLTVLHQDWLNGKEYKCKVSNKALPAPIEKTISKAKGQPREPQVYTLPPSRCELTKNQVSLSCAVKGFYPSDIAVEWESNGQPENNYKTTPPVLDSDGSFFLVSKLTVDKSRWQQGNVFSCSVMHEALHNHYTQKSLSLSPDYKDDDDK
chain: EPKSSDKTHTCPPCPAPELLGGPSVFLFPPKPKDTLMISRTPEVTCVVVDVSHEDPEVKFNWYVDGVEVHNAKTKPREEQYNSTYRVVSVLTVLHQDWLNGKEYKCKVSNKALPAPIEKTISKAKGQPREPQVCTLPPSRDELTKNQVSLWCLVKGFYPSDIAVEWESNGQPENNYKTTPPVLDSDGSFFLYSKLTVDKSRWQQGNVFSCSVMHEALHNRYTQKSLSLSP
light: DIVMTQSPLSLPVTPGEPASISCRSSQSLVHSNRNTYLHWYQQKPGQAPRLLIYKVSNRFSGVPDRFSGSGSGTDFTLKISRVEAEDVGVYYCGQGTQVPYTFGQGTKLEIKRTVAAPSVFIFPPSDEQLKSGTASVVCLLNNFYPREAKVQWKVDNALQSGNSQESVTEQDSKDSTYSLSSTLTLSKADYEKHKVYACEVTHQGLSSPVTKSFNRGEC

In the assay the target is T1, CD3 epsilon homodimer protein (UniProt P07766 23-126).
T1 construct: immobilized on Sensor chip CM4 by amine coupling; also called CD3 (CD3 epsilon)
T1 sequence (P07766 23-126): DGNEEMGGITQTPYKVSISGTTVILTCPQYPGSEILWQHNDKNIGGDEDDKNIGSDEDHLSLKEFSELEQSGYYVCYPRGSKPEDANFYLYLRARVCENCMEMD
Nature of the assay: SPR (Biacore T200), CD3 epsilon homodimer on CM4 chip, one-arm antibody as analyte, 25 C.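 Note: homodimer attached to the sensor surface via amine coupling, HBS-EP+ used as running buffer during binding runs.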 On the technique in general: Surface plasmon resonance follows binding to a sensor surface in real time, without labels.
B1: the “ratio of amounts bound (altered form / CE115HA000)” value came out at 1.02. As for B2, the figure is 1.01; as for B3, 2.96. As to B4, the “ratio of amounts bound (altered form / CE115HA000)” value came to 1.22. Take B5: the “ratio of amounts bound (altered form / CE115HA000)” value worked out at 1.05.

Turning to B6, the “ratio of amounts bound (altered form / CE115HA000)” value came to 2.22.

(Values after US20210388087A1 (Chugai, published 2021).)
